Residue numbers refer to the chain shown, from its start.
Experiments:
[1] = target: T1, LAMP1_hL1_mL2_hL34_ΔGYQTI (human; mouse, UniProt P11279 29-412); assay: flow cytometry, transfected 293-F cells
T1 construct: on cells; also called pXL5997
T1 chain: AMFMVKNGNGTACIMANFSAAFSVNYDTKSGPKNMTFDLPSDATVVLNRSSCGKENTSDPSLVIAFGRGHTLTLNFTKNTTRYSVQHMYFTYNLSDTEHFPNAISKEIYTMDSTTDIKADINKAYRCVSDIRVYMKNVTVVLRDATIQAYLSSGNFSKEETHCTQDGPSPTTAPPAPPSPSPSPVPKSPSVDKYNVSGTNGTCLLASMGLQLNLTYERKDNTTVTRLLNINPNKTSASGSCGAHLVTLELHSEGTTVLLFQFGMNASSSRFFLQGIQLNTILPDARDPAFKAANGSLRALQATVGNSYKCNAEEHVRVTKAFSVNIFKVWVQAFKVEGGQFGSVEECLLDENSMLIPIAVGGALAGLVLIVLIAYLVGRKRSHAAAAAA

LAMP1_mseq11_ΔGYQTI = target: T2, LAMP1_mseq11_ΔGYQTI (human; mouse, UniProt P11279 29-412); assay: flow cytometry, transfected 293-F cells
T2 construct: on cells; also called pXL5995
T2 chain: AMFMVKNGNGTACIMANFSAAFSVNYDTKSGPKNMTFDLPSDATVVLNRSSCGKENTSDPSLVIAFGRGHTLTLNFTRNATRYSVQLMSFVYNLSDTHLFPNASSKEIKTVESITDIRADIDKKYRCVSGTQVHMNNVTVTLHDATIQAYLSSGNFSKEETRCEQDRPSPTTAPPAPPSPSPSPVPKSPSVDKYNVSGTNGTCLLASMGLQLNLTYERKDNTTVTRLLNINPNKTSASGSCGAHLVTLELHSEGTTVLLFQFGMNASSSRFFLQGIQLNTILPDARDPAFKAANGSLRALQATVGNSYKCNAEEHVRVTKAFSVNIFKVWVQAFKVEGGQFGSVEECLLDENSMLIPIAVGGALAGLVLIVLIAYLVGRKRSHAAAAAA

LAMP1_mseq6_ΔGYQTI = target: T3, LAMP1_mseq6_ΔGYQTI (human; mouse, UniProt P11279 29-412); assay: flow cytometry, transfected 293-F cells
T3 construct: on cells; also called pXL5990
T3 chain: T2 chain with H70Y, T71L, R78K, A80T, S153N, G154S, N155S, K158R, E159G

[2] = target: T4, cynomolgus monkey LAMP1 at the cell surface (cynomolgus monkey, UniProt P11279 29-417 (human entry)); assay: flow cytometry, HEK293 cynoLAMP1 clone 44
T4 construct: also called cynoLAMP1; cynomolgus LAMP1
T4 chain: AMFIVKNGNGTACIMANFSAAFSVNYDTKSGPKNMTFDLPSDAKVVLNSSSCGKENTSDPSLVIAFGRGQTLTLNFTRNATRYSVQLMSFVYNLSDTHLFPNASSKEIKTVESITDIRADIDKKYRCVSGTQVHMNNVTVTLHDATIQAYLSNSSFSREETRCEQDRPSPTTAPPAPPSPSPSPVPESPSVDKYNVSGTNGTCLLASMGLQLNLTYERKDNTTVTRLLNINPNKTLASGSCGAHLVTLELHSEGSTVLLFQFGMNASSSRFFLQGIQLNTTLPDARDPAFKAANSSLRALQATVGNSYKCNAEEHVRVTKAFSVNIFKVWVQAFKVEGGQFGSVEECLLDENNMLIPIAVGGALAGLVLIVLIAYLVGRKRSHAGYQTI

[3] = target: T5, human LAMP1 at the cell surface (human, UniProt P11279 29-417); assay: cell-based or functional assay
T5 sequence: T2 chain with S153N, G154S, N155S, K158R, E159G, A385G, A386Y, A387Q, A388T, A389I

B1: huMAb1_1 (antibody, human IgG1, kappa)
heavy: not shown
light: DIQMTQSPSSLSASVGDRVTITCKASQDIDRYMAWYQDKPGKAPRLLIHDTSTLQSGVPSRFSGSGSGRDYTLTISNLEPEDFATYYCLQYDNLWTFGGGTKVEIKRTVAAPSVFIFPPSDEQLKSGTASVVCLLNNFYPREAKVQWKVDNALQSGNSQESVTEQDSKDSTYSLSSTLTLSKADYEKHKVYACEVTHQGLSSPVTKSFNRGEC
notes: humanized, VH1-huIgG1 and VL1-huCk
[1]
  binding result: no binding
LAMP1_mseq11_ΔGYQTI
  binding result: no binding
LAMP1_mseq6_ΔGYQTI
  binding result: no binding
[2]
  EC50: 30.1 nM
[3]
  ADCP Mean EC50, HCT116 huLAMP1 clone 4, antigen density 20 000: 0.73 nM
  ADCP Mean EC50, HCT116 huLAMP1 clone 5, antigen density 300 000: 0.33 nM
  ADCP Mean EC50, HCT116 huLAMP1 clone 8, antigen density 100 000: 0.43 nM
  ADCP Mean EC50, HCT116 huLAMP1 clone 12, antigen density 2500: 0.65 nM

— US20180142032A1 (Sanofi, published 2018)
